Patent US10704030B2, “P450-BM3 variants with improved activity” (Codexis, Inc., priority 2015, dated 2020)

Experiments:
Assay type in all cases: biochemical
[1] = Validation of generalist properties: oxidation of diclofenac by lyophilized P450-BM3 variant, UPLC-MS; conditions: [Diclofenac] = 1 mM; for TON: TON = [substrate]*% conversion/[P450]; for FIOPC (B02): fold improvement over parent MCYP-P1.2-B02
Protocol: (§1) For the production of lyophilized protein powders, LB agar plates supplemented with chloramphenicol (30 μg/mL) were streaked with E. coli containing a desired B. megaterium P450-BM3 variant in an IPTG-inducible vector. The plates were grown at 37° C. for 16 hrs before single clones were selected to inoculate a 15 mL Falcon™ tube (Fisher) containing TB media (3 mL) supplemented with chloramphenicol (30 μg/mL). The tube was shaken at 200 rpm, 30° C., and 85% humidity for 20-24 h to grow the cultures to saturation. Then, 2.5 mL of the overnight culture was used to inoculate sterile 1 L flasks containing TB medium (250 mL) supplemented with chloramphenicol (30 μg/mL), trace element solution (as described above), and 0.05 g/L ammonium iron (III) citrate. After being shaken at 250 rpm, 30° C., and 85% humidity to an OD600 of 0.8-1.2, P450 expression was induced by addition of IPTG (500 uM) and the heme precursor 5-aminolevulinic acid (5-ALA) to a final concentration of 500 uM. The cultures were grown for additional 20-24 hours and centrifuged in pre-weighed 250 mL centrifuge bottles for 20 minutes at 4000 rpm, 4° C. The supernatants were discarded, and the centrifuge bottles containing cell pellets were weighed. The pellets were resuspended in 50 mM potassium phosphate buffer with 2 mM DTT, pH 8.0 (5 mL of buffer per gram of cell pellet). The cells were lysed using a microfluidizer homogenizer, and the suspensions of cells and lysate were collected in sterile 50 mL centrifuge tubes. The samples were centrifuged for 30 minutes at 10,000 rpm, 4° C. The clarified lysate was collected into a plastic petri plate and frozen at −80° C. prior to lyophilization. The enzyme-containing lysates were lyophilized using standard methods known in the art.
(§2) Enzyme stocks (˜12 μM) were prepared by dissolving ˜20 mg of each enzyme in 100 mM potassium phosphate buffer, pH 8.0 (1 mL). The concentration of each enzyme stock solution was determined by the UV-visible absorption spectroscopy (after centrifugation to remove particulates) and diluted to standardize at 12 μM heme protein. Substrate solutions were prepared by dissolving each substrate in DMSO to reach a final concentration of 20 mM or 40 mM. Reaction mix (235 μL) followed by enzyme solution (50 μL) was added to the plates. The substrate stock solution was added to the enzyme solutions (15 μL at the two different concentrations). Each reaction contained 100 mM potassium phosphate, 1.0 mM NADP+, 25 mM glucose, 0.5 mg/mL glucose dehydrogenase, 5% DMSO and substrate at 1 or 2 mM. Loratadine, imatinib, and gefitinib (See, FIG. 1) were selected as substrates in addition to diclofenac to validate improved BM3 variants. The reactions were shaken at 450 rpm at 30° C. over 24 hours. All reactions were diluted with acetonitrile to a final concentration of 0.5 mM substrate. The plates were then centrifuged at 3,000 g for 1 hour at 20° C. The supernatant was diluted 1:1 with acetonitrile, filtered using a 0.4 micron filter, and analyzed by UPLC-MS.
(§3) For UPLC-MS analysis, the quenched and filtered reactions were transferred to 96-well HTP plates for analysis by UPLC on a Waters Acquity H-class system equipped with an autosampler. 1 uL of quenched sample was injected onto an Acquity UPLC HSS T3 column, 100 Å, (1.8 um; 2.1×100 mm). The column was eluted at a constant flow rate of 0.6 mL/min; conditions with solvent A (0.05% trifluoroacetic acid v/v, in H2O) and solvent B (0.05% trifluoroacetic acid v/v, in acetonitrile) used to elute the products of the reaction were: 0-2 min, A/B 95:5; 2-2.9 min, A/B 5:95; 2.9-3 min, A/B 95:5; 3-3.5 min, A/B 95:5. Column eluent was monitored by PDA (200-600 nm) prior to MS analysis in positive ESI mode (desolvation temperature 350° C., 3.25 kV spray voltage, cone voltage 25V). The column eluent was diverted to waste for the first 0.7 minutes of the run. For the remainder of the LC run, both MS (m/z 95-600 scan range) and MS/MS were collected. […]

[2] = Validation of generalist properties: oxidation of gefitinib by lyophilized P450-BM3 variant, UPLC-MS; conditions: [Gefitinib] = 1 mM; for TON: TON = [substrate]*% conversion/[P450]; for FIOPC (B02): fold improvement over parent MCYP-P1.2-B02
Protocol: as §1, §2, §3

[3] = Validation of generalist properties: oxidation of imatinib by lyophilized P450-BM3 variant, UPLC-MS; conditions: [Imatinib] = 1 mM; for TON: TON = [substrate]*% conversion/[P450]; for FIOPC (B02): fold improvement over parent MCYP-P1.2-B02
Protocol: as §1, §2, §3

[4] = Validation of generalist properties: oxidation of loratadine by lyophilized P450-BM3 variant, UPLC-MS; conditions: [Loratadine] = 1 mM; for TON: TON = [substrate]*% conversion/[P450]; for FIOPC (B02): fold improvement over parent MCYP-P1.2-B02
Protocol: as §1, §2, §3

B1: Variant 9: P450-BM3 variant of SEQ ID NO: 8: Y52F; D232H; E349K; E619D; D722S; R762H (protein)
chain: MTIKEMPQPKTFGELKNLPLLNTDKPVQALMKIADELGEIFKFEAPGRVTRFLSSQRLIKEACDESRFDKNLSQALKFARDFAGDGLFTSWTHEKNWKKAHNILLPSFSQQAMKGYHAMMVDIAVQLVQKWERLNADEYIEVPEDMTRLTLDTIGLCGFNYRFNSFYRDQPHPFIISMIRALDEVMNKLQRANPDDPAYDENKRQFQEDIKVMNDLVDKIIADRKASGEQSHDLLTQMLNGKDPETGEPLDDGNISYQIITFLIAGHETTSGLLSFALYFLVKNPHVLQKVAEEATRVLVDPVPSYKQVKQLKYVGMVLNEALRLWPTAPAFSLYAKEDTVLGGEYPLKKGDEVMVLIPQLHRDKTIWGDDVEEFRPERFENPSAIPQHAFKPFGNGQRACIGQQFALHEATLVLGMMLKHFDFEDHTNYELDIKETLTLKPEGFVVKAKSKKIPLGGIPSPSTEQSAKKVRKKAENAHNTPLLVLYGSNMGTAEGTARDLADIAMSKGFAPQVATLDSHAGNLPREGAVLIVTASYNGHPPDNAKQFVDWLDQASADEVKGVRYSVFGCGDKNWATTYQKVPAFIDETLAAKGAENIADRGEADASDDFEGTYEEWRDHMWSDVAAYFNLDIENSEDNKSTLSLQFVDSAADMPLAKMHGAFSTNVVASKELQQPGSARSTRHLEIELPKEASYQEGDHLGVIPRNYEGIVNRVTARFGLSASQQIRLEAEEEKLAHLPLAKTVSVEELLQYVELQDPVTHTQLRAMAAKTVCPPHKVELEALLEKQAYKEQVLAKRLTMLELLEKYPACEMKFSEFIALLPSIRPRYYSISSSPRVDEKQASITVSVVSGEAWSGYGEYKGIASNYLAELQEGDTITCFISTPQSEFTLPKDPETPLIMVGPGTGVAPFRGFVQARKQLKEQGQSLGEAHLYFGCRSPHEDYLYQEELENAQSEGIITLHTAFSRMPNQPKTYVQHVMEQDGKKLIELLDQGAHFYICGDGSQMAPAVEATLMKSYADVHQVSEADARLWLQQLEEKGRYAKDVWAG
modifications: P450_BM3
notes: D232H; E349K; E619D; D722S; R762H
- % Conv. [1]: ++++ (15.01-20.00)
- TON [1]: ‡‡‡ (5001-10000)
- FIOPC (B02) [1]: * (0.0-3.0)
- % Conv. [2]: + (0-5.00)
- TON [2]: ‡ (0-1000)
- FIOPC (B02) [2]: * (0.0-3.0)
- % Conv. [3]: ++++ (15.01-20.00)
- TON [3]: ‡‡‡‡ (10000-50000)
- FIOPC (B02) [3]: * (0.0-3.0)
- % Conv. [4]: ++ (5.01-10.00)
- TON [4]: ‡‡ (1001-5000)
- FIOPC (B02) [4]: * (0.0-3.0)

B2: Variant 10: P450-BM3 variant of SEQ ID NO: 8: K32R; Y52F; K95P; Q111R; G115R; I176V; L216Y; D232H; P347T; E349T; M491A; T577A; E619D; D722S (protein)
chain: MTIKEMPQPKTFGELKNLPLLNTDKPVQALMRIADELGEIFKFEAPGRVTRFLSSQRLIKEACDESRFDKNLSQALKFARDFAGDGLFTSWTHEPNWKKAHNILLPSFSQRAMKRYHAMMVDIAVQLVQKWERLNADEYIEVPEDMTRLTLDTIGLCGFNYRFNSFYRDQPHPFIVSMIRALDEVMNKLQRANPDDPAYDENKRQFQEDIKVMNDYVDKIIADRKASGEQSHDLLTQMLNGKDPETGEPLDDGNISYQIITFLIAGHETTSGLLSFALYFLVKNPHVLQKVAEEATRVLVDPVPSYKQVKQLKYVGMVLNEALRLWPTAPAFSLYAKEDTVLGGEYTLTKGDEVMVLIPQLHRDKTIWGDDVEEFRPERFENPSAIPQHAFKPFGNGQRACIGQQFALHEATLVLGMMLKHFDFEDHTNYELDIKETLTLKPEGFVVKAKSKKIPLGGIPSPSTEQSAKKVRKKAENAHNTPLLVLYGSNAGTAEGTARDLADIAMSKGFAPQVATLDSHAGNLPREGAVLIVTASYNGHPPDNAKQFVDWLDQASADEVKGVRYSVFGCGDKNWAATYQKVPAFIDETLAAKGAENIADRGEADASDDFEGTYEEWRDHMWSDVAAYFNLDIENSEDNKSTLSLQFVDSAADMPLAKMHGAFSTNVVASKELQQPGSARSTRHLEIELPKEASYQEGDHLGVIPRNYEGIVNRVTARFGLSASQQIRLEAEEEKLAHLPLAKTVSVEELLQYVELQDPVTRTQLRAMAAKTVCPPHKVELEALLEKQAYKEQVLAKRLTMLELLEKYPACEMKFSEFIALLPSIRPRYYSISSSPRVDEKQASITVSVVSGEAWSGYGEYKGIASNYLAELQEGDTITCFISTPQSEFTLPKDPETPLIMVGPGTGVAPFRGFVQARKQLKEQGQSLGEAHLYFGCRSPHEDYLYQEELENAQSEGIITLHTAFSRMPNQPKTYVQHVMEQDGKKLIELLDQGAHFYICGDGSQMAPAVEATLMKSYADVHQVSEADARLWLQQLEEKGRYAKDVWAG
modifications: P450_BM3
notes: Y52F; K95P; Q111R; G115R; I176V; L216Y; D232H; P347T; E349T; M491A; T577A; E619D; D722S
- % Conv. [1]: +++ (10.01-15.00)
- TON [1]: ‡‡‡ (5001-10000)
- FIOPC (B02) [1]: * (0.0-3.0)
- % Conv. [2]: ++ (5.01-10.00)
- TON [2]: ‡‡ (1001-5000)
- FIOPC (B02) [2]: **** (10.01-15.00)
- % Conv. [3]: ++++ (15.01-20.00)
- TON [3]: ‡‡‡‡ (10000-50000)
- FIOPC (B02) [3]: ** (3.01-5.0)
- % Conv. [4]: ++ (5.01-10.00)
- TON [4]: ‡‡ (1001-5000)
- FIOPC (B02) [4]: * (0.0-3.0)
